The values below come from publication PMC2738423.

Common to all, as to experiment: SPR
In general terms: Surface plasmon resonance follows binding to a sensor surface in real time, without labels.

Assay [1] addresses Fc-WT-MBP (glycosylated; wild type mouse IgG1 hinge-Fc linked via Gly-Ser-Gly-Gly to MBP1–9[4Y]) (mouse | not stated).
The target in assay [2] is AglyFc-WT-MBP (aglycosylated, N297A; mouse IgG1 hinge-Fc linked via Gly-Ser-Gly-Gly to MBP1–9[4Y]) (mouse | not stated).
Assay [3] has as its target AglyFc-mut-MBP (aglycosylated, N297A; mouse IgG1 hinge-Fc TT-HN mutant linked via Gly-Ser-Gly-Gly to MBP1–9[4Y]) (mouse | not stated).
In assay [4] the target is wild type (WT) mouse hinge-Fc region (mouse IgG1 derived), no MBP epitope attached (mouse).

Consider “Recombinant mouse FcRn (from UniProt Q61559 22-365; P01887 21-119) (receptor)”, for which the KD of the higher affinity interaction site in assay [1] worked out at 212 nM; in assay [2], 170 nM; in assay [3] it was 19.8 nM; in assay [4], 188 nM.
